Source: US20200277373A1 (published 2020)

T1: Mouse TREM2, on cells (mouse, UniProt Q99NH8 19-227)
T1 chain: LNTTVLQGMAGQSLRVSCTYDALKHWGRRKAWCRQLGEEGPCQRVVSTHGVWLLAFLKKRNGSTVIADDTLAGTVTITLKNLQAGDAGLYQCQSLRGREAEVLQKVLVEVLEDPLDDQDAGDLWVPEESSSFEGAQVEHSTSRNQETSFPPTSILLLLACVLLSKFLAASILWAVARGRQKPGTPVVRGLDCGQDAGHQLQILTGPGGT

T2: His-tagged TREM2 ECD (ecto domain residues 19-172 of human TREM2, C-terminal 6X-His tag) (UniProt Q9NZC2 19-172)
T2 chain: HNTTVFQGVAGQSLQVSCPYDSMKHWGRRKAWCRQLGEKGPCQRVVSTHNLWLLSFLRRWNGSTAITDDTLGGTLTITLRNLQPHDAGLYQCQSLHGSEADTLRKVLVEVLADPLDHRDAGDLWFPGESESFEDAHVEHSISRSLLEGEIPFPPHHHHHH


Assays:
Mouse TREM2, on cells = target: T1, Mouse TREM2, on cells; assay: FACS cell binding; FIG. 1D
[1] = target: T2, His-tagged TREM2 ECD (ecto domain …); assay: SPR (Biacore)

Row | EC50 (Mouse TREM2, on cells) | Kd [1] | Binder
1 | 6.81 nM |  | RS9.F6 (antibody, V domains shown) VH: QVQLQQPGAELVKPGASVKLSCKASGYTFTSYWMHWVKQSPGRGLEWIGRSDPTTGGTNYNEKFKTKATLTVDKPSSTAYMQLSSLTSDDSAVYYCVRTSGTGDYWGQGTSLTVSS VL: DVVMTQTPLSLPVSLGDQASISCRSSQSLVHNNGNTFLHWYLQKPGQSPKLLIYKVSNRFSGVPDRFSGSGSGTDFTLKISRVEAEDLGVYFCSQTTHVPPTFGGGTKLEIK
2 |  | 2.27 nM | RS9.F6/3C.35.21.17 (bispecific antibody) heavy 1: QVQLQQPGAELVKPGASVKLSCKASGYTFTSYWMHWVKQSPGRGLEWIGRSDPTTGGTNYNEKFKTKATLTVDKPSSTAYMQLSSLTSDDSAVYYCVRTSGTGDYWGQGTSLTVSSASTKGPSVFPLAPSSKSTSGGTAALGCLVKDYFPEPVTVSWNSGALTSGVHTFPAVLQSSGLYSLSSVVTVPSSSLGTQTYICNVNHKPSNTKVDKKVEPKSCDKTHTCPPCPAPEAAGGPSVFLFPPKPKDTLMISRTPEVTCVVVDVSHEDPEVKFNWYVDGVEVHNAKTKPREEQYNSTYRVVSVLTVLHQDWLNGKEYKCKVSNKALGAPIEKTISKAKGQPREPQVYTLPPSRDELTKNQVSLWCLVKGFYPSDIAVLWESYGTEWASYKTTPPVLDSDGSFFLYSKLTVTKEEWQQGFVFSCSVMHEALHNHYTQKSLSLSPGK heavy 2: QVQLQQPGAELVKPGASVKLSCKASGYTFTSYWMHWVKQSPGRGLEWIGRSDPTTGGTNYNEKFKTKATLTVDKPSSTAYMQLSSLTSDDSAVYYCVRTSGTGDYWGQGTSLTVSSASTKGPSVFPLAPSSKSTSGGTAALGCLVKDYFPEPVTVSWNSGALTSGVHTFPAVLQSSGLYSLSSVVTVPSSSLGTQTYICNVNHKPSNTKVDKKVEPKSCDKTHTCPPCPAPEAAGGPSVFLFPPKPKDTLMISRTPEVTCVVVDVSHEDPEVKFNWYVDGVEVHNAKTKPREEQYNSTYRVVSVLTVLHQDWLNGKEYKCKVSNKALGAPIEKTISKAKGQPREPQVYTLPPSRDELTKNQVSLSCAVKGFYPSDIAVEWESNGQPENNYKTTPPVLDSDGSFFLVSKLTVDKSRWQQGNVFSCSVMHEALHNHYTQKSLSLSPGK light: DVVMTQTPLSLPVSLGDQASISCRSSQSLVHNNGNTFLHWYLQKPGQSPKLLIYKVSNRFSGVPDRFSGSGSGTDFTLKISRVEAEDLGVYFCSQTTHVPPTFGGGTKLEIK
